In US20190211086A1 (RPEPTIDE, published 2019):
Each block holds one binder with its values, some of them ahead of it.

Columns and labels:
[1] = molecular target: T1, Tau Isoform 441 (human, UniProt P10636 2-758); assay: screening of hybridoma cell lines; assay not given
T1 construct: Obtained as a lyophilized purified isoform; also called tau441

[2] = molecular target: T2, Tau Isoform 352 (human, UniProt P10636 2-758); assay: screening of hybridoma cell lines; assay not given
T2 construct: Obtained as a lyophilized purified isoform; also called Tau 352; tau352

[3] = molecular target: T3, Tau Isoform 383 (human, UniProt P10636 2-758); assay: screening of hybridoma cell lines; assay not given
T3 construct: Obtained as a lyophilized purified isoform; also called Tau 383; tau383

[4] = molecular target: T4, Tau Isoform 381 (human, UniProt P10636 2-758); assay: screening of hybridoma cell lines; assay not given
T4 construct: Obtained as a lyophilized purified isoform; also called tau381

[5] = molecular target: T5, Tau Isoform 410 (human, UniProt P10636 2-758); assay: screening of hybridoma cell lines; assay not given
T5 construct: Obtained as a lyophilized purified isoform; also called Tau 410; tau410

[6] = molecular target: T6, Tau Isoform 412 (human, UniProt P10636 2-758); assay: screening of hybridoma cell lines; assay not given
T6 construct: Obtained as a lyophilized purified isoform; also called tau412

[7] = molecular target: T3, Tau Isoform 383; assay: ELISA, 100 ng or 50 ng coated tau isoform, antibody 1:1,000 and 1:10,000
Method: More specifically, the 4G11 mAb was tested in an ELISA against 100 ng of each of the Tau isoforms at a 1:1,000 antibody dilution (FIG. 6A); against 100 ng of each of the Tau isoforms at a 1:10,000 antibody dilution (FIG. 6B); against 50 ng of each of the Tau isoforms at a 1:1,000 antibody dilution (FIG. 6C); and against 50 ng of each of the Tau isoforms at a 1:10,000 antibody dilution (FIG. 6D). […] The highest binding levels were found using 100 ng of the tau isoform with an antibody dilution of 1:1,000.
Antibody 4G11 was tested in an ELISA against 100 ng and 50 ng of the six human Tau isoform using antibodies dilutions of 1:1,000 and 1:10,000. Both 4G11 stored at −80° C. as well as a lyophilized form stored at ambient temperature were compared in this assay and the results are provided in FIGS. 6A-D (the left bar for each isoform are the results of the antibody stored at −80° C. and the right bar for each isoform is the lyophilized form, stored at 25° C.

[8] = molecular target: T2, Tau Isoform 352; assay: not named in the sentence (summary of antibody generation)

T1 sequence (P10636 other isoform, or with tags, fused parts or gaps limits assumed): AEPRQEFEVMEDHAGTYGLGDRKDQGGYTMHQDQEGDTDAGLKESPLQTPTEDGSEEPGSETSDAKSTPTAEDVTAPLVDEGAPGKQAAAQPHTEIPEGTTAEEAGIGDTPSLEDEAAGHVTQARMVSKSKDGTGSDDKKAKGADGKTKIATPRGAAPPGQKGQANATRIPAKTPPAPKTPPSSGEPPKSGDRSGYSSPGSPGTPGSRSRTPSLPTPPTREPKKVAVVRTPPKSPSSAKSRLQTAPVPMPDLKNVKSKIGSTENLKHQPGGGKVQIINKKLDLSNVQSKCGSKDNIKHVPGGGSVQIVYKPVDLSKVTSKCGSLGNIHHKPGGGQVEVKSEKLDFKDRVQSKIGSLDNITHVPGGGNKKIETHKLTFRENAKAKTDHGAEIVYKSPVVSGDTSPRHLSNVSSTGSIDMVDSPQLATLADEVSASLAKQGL
T3 sequence (P10636 other isoform, or with tags, fused parts or gaps limits assumed): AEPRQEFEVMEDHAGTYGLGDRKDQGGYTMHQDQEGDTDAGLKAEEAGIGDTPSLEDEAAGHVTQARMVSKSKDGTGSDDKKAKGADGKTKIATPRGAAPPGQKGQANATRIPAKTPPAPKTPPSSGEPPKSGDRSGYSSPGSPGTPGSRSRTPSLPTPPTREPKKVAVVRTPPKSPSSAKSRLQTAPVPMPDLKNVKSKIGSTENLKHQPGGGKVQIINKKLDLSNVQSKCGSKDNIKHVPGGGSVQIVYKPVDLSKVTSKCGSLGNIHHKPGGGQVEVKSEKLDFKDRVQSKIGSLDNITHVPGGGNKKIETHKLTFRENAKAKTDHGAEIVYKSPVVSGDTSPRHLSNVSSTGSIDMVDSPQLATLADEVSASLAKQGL
T4 sequence (P10636 other isoform, or with tags, fused parts or gaps limits assumed): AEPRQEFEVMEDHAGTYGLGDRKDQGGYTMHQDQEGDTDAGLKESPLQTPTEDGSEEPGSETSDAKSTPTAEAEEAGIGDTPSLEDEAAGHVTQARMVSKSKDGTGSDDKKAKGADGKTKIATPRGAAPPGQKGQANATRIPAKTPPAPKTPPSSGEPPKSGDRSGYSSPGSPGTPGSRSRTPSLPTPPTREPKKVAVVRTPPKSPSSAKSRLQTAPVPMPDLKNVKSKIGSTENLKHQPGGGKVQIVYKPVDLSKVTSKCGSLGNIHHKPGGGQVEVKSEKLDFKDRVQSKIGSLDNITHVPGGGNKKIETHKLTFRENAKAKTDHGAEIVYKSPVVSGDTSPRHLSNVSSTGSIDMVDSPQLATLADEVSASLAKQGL
T2 sequence (P10636 other isoform, or with tags, fused parts or gaps limits assumed): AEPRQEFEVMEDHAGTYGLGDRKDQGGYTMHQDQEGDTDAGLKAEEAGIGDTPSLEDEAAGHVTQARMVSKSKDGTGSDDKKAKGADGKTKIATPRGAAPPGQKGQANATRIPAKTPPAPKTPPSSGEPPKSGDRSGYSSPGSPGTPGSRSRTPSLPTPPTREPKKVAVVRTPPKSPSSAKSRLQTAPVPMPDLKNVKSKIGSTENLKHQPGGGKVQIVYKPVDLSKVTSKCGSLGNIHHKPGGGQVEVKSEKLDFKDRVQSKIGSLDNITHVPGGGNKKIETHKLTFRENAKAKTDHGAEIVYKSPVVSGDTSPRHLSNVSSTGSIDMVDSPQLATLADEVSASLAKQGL
T6 sequence (P10636 other isoform, or with tags, fused parts or gaps limits assumed): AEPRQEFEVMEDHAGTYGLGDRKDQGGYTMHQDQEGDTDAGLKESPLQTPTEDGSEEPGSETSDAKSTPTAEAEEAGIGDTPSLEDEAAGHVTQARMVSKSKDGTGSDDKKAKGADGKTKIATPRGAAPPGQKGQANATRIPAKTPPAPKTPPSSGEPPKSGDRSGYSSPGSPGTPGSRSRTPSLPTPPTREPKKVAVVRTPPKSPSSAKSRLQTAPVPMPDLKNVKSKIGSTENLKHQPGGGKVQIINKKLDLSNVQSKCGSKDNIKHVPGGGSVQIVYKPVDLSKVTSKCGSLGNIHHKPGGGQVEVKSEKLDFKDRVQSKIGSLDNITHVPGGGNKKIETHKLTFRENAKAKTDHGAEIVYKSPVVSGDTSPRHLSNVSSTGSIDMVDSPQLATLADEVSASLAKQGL
T5 sequence (P10636 other isoform, or with tags, fused parts or gaps limits assumed): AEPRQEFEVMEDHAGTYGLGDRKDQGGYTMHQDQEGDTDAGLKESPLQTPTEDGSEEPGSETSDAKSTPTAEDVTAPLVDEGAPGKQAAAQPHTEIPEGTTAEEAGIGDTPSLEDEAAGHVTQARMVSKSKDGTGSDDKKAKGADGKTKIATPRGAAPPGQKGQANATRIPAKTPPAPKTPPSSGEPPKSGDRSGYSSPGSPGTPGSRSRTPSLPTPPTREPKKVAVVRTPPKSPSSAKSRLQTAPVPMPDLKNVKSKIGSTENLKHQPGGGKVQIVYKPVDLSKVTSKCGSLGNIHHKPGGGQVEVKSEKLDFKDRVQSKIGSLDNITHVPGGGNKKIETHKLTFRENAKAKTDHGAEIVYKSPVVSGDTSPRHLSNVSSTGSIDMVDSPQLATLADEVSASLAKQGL

binding result [1]: binds
binding result [2]: binds
binding result [3]: binds
binding result [4]: binds
binding result [5]: binds
binding result [6]: binds
B1: monoclonal antibody 1A6 (antibody, IgM, V domains shown)
VH: DVQLVESGGGLVQPGGSRKLSCAASGFTFSSFGMHWVRQVPEKGLEWVAYISSGSSTIYYADTVKGRFTISRDNPKNTLFLQMTSLRSEDTAMYYCASNQSPTGFAYWGQGTLVTVSA
VL: DVVMTQTPLSLPVSLGDQASISCRSSQSLVHSNGNTYLHWYLQKPGQSPKLLIYKVSNRFSGVPDRFSGSGSGTDFTLKISRVEAEDLGVYFCSQSTHVPLTFGAGTKLELK
notes: Mouse hybridoma antibody (h1A6, ATCC PTA-122038), from a mouse immunized with tau 352; also called Tau 1A6; mAb 1A6

binding result [7]: binds
binding result [1]: binds
binding result [4]: binds
binding result [5]: binds
binding result [6]: binds
binding result [8]: binds
B2: monoclonal antibody 4G11 (antibody, IgA, V domains shown)
VH: EVQLVESGGGLVQPKGSLKLSCAASGFTFNIYAMNWVRQAPGKGLEWVARIRSKSNNYATYYADSMKDRFTISRDDSQSMLYLQMNNLKTEDTAMYYCVRHGNYYFDYWGQGTTLTVSS
VL: ENVLTQSPAIMAASLGQKVTMTCSADSSVSSSYLNWYQQKSGASPKPLIHRTSNLASGVPARFSGSGSGTSYSLTISSVEAEDDATYYCQQWSGYPFIFTFGSGTKLEIK
notes: also called Tau 4G11; mAb 4G11
